Results on one molecule are retold here after paper doi:10.1101/2022.06.04.494830, “The oncogenic fusion protein EWS-FLI1 promotes premature ageing of biomolecular condensates by catalyzing fibril formation” (bioRxiv, 2022).

The target in the experiment is PU.1 DNA-binding domain (PU.1^DBD, PU.1 168-270) (human, UniProt P17947 168-270). In words: NMR titration; 1H,15N-HSQC of 50 uM 15N PU.1 168-270 in 50 mM sodium phosphate pH 6.5, 25 C, titrated with unlabeled EWS^LCD (2 mM stock in 20 mM CAPS pH 11) to 12.5, 25, 50, 100 and 150 uM (~3:1). Conditions: both partners purified.

B1: EWS low-complexity domain (EWS^LCD, EWS 1-264) (domain or fragment)
chain: MASTDYSTYSQAAAQQGYSAYTAQPTQGYAQTTQAYGQQSYGTYGQPTDVSYTQAQTTATYGQTAYATSYGQPPTGYTTPTAPQAYSQPVQGYGTGAYDTTTATVTTTQASYAAQSAYGTQPAYPAYGQQPAATAPTRPQDGNKPTETSQPQSSTGGYNQPSLGYGQSNYSYPQVPGSYPMQPVTAPPSYPPTSYSSTQPTSYDQSSYSQQNTYGQPSSYGQQSSYGQQSSYGQQPPTSYPPQTGSYSQAPSQYSQQSSSYGQQ
notes: In the fluorescence microscopy 1% of the EWS^LCD carried DyLight 650 or 488, attached through a dye-labelled KLPETGG peptide with sortase; also called EWS^LCD,650; EWS^LCD,488; source: E. coli BL21 Star (DE3) or BL21 (DE3) pLysS, purified (IMAC or cation exchange, TEV cleavage, SEC; 20 mM CAPS pH 11); not shown: His tag (6 or 8 x), N-terminal, cleaved
Take B1: the binding result is given as “binds”.
